Measured values: IntAct's records for PubMed 22491013

B1: Low-density lipoprotein receptor-related protein 6 (Homo sapiens), O75581 (parent)
chain: MGAVLRSLLACSFCVLLRAAPLLLYANRRDLRLVDATNGKENATIVVGGLEDAAAVDFVFSHGLIYWSDVSEEAIKRTEFNKTESVQNVVVSGLLSPDGLACDWLGEKLYWTDSETNRIEVSNLDGSLRKVLFWQELDQPRAIALDPSSGFMYWTDWGEVPKIERAGMDGSSRFIIINSEIYWPNGLTLDYEEQKLYWADAKLNFIHKSNLDGTNRQAVVKGSLPHPFALTLFEDILYWTDWSTHSILACNKYTGEGLREIHSDIFSPMDIHAFSQQRQPNATNPCGIDNGGCSHLCLMSPVKPFYQCACPTGVKLLENGKTCKDGATELLLLARRTDLRRISLDTPDFTDIVLQLEDIRHAIAIDYDPVEGYIYWTDDEVRAIRRSFIDGSGSQFVVTAQIAHPDGIAVDWVARNLYWTDTGTDRIEVTRLNGTMRKILISEDLEEPRAIVLDPMVGYMYWTDWGEIPKIERAALDGSDRVVLVNTSLGWPNGLALDYDEGKIYWGDAKTDKIEVMNTDGTGRRVLVEDKIPHIFGFTLLGDYVYWTDWQRRSIERVHKRSAEREVIIDQLPDLMGLKATNVHRVIGSNPCAEENGGCSHLCLYRPQGLRCACPIGFELISDMKTCIVPEAFLLFSRRADIRRISLETNNNNVAIPLTGVKEASALDFDVTDNRIYWTDISLKTISRAFMNGSALEHVVEFGLDYPEGMAVDWLGKNLYWADTGTNRIEVSKLDGQHRQVLVWKDLDSPRALALDPAEGFMYWTEWGGKPKIDRAAMDGSERTTLVPNVGRANGLTIDYAKRRLYWTDLDTNLIESSNMLGLNREVIADDLPHPFGLTQYQDYIYWTDWSRRSIERANKTSGQNRTIIQGHLDYVMDILVFHSSRQSGWNECASSNGHCSHLCLAVPVGGFVCGCPAHYSLNADNRTCSAPTTFLLFSQKSAINRMVIDEQQSPDIILPIHSLRNVRAIDYDPLDKQLYWIDSRQNMIRKAQEDGSQGFTVVVSSVPSQNLEIQPYDLSIDIYSRYIYWTCEATNVINVTRLDGRSVGVVLKGEQDRPRAVVVNPEKGYMYFTNLQERSPKIERAALDGTEREVLFFSGLSKPIALALDSRLGKLFWADSDLRRIESSDLSGANRIVLEDSNILQPVGLTVFENWLYWIDKQQQMIEKIDMTGREGRTKVQARIAQLSDIHAVKELNLQEYRQHPCAQDNGGCSHICLVKGDGTTRCSCPMHLVLLQDELSCGEPPTCSPQQFTCFTGEIDCIPVAWRCDGFTECEDHSDELNCPVCSESQFQCASGQCIDGALRCNGDANCQDKSDEKNCEVLCLIDQFRCANGQCIGKHKKCDHNVDCSDKSDELDCYPTEEPAPQATNTVGSVIGVIVTIFVSGTVYFICQRMLCPRMKGDGETMTNDYVVHGPASVPLGYVPHPSSLSGSLPGMSRGKSMISSLSIMGGSSGPPYDRAHVTGASSSSSSSTKGTYFPAILNPPPSPATERSHYTMEFGYSSNSPSTHRSYSYRPYSYRHFAPPTTPCSTDVCDSDYAPSRRMTSVATAKGYTSDLNYDSEPVPPPPTPRSQYLSAEENYESCPPSPYTERSYSHHLYPPPPSPCTDSS
partner: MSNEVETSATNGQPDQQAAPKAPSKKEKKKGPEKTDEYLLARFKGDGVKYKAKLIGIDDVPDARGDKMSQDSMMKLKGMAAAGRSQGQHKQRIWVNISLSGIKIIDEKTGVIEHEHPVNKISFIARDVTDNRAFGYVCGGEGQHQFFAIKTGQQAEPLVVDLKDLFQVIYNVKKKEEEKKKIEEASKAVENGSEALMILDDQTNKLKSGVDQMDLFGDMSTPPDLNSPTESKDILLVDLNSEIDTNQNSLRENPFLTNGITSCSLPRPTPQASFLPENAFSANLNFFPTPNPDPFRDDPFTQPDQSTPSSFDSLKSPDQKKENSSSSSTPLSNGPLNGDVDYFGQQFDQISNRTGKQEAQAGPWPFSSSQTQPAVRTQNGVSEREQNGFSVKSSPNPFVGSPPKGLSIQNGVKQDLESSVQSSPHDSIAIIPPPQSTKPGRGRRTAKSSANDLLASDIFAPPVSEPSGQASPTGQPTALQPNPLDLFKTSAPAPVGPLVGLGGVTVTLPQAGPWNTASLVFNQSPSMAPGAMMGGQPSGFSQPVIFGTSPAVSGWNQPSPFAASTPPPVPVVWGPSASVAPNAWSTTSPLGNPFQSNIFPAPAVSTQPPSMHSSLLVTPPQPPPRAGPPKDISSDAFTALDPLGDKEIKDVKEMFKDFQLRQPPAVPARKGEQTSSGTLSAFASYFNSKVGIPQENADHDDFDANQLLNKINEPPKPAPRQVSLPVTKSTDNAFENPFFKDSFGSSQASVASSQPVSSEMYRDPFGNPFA

Variants of: B1
Settings: with dab2_human DAB2, P98082

Variant	effect of a mutation on the interaction
Y1577A	decreasing interaction

Variants of: B1
Settings: with dab2_human DAB2, P98082
Remark: another data set of the same source

Variant	effect of a mutation on the interaction
T1593A	decreasing interaction

Variants of: B1
Settings: with dab2_human DAB2, P98082
Remark: another data set of the same source

Variant	effect of a mutation on the interaction
Y1584A	decreasing interaction

Variants of: B1
Settings: with dab2_human DAB2, P98082
Remark: another data set of the same source

Variant	effect of a mutation on the interaction
Y1592A	decreasing interaction

Variants of: B1
Settings: with dab2_human DAB2, P98082
Remark: another data set of the same source

Variant	effect of a mutation on the interaction
S1575A	decreasing interaction

Variants of: B1
Settings: with dab2_human DAB2, P98082
Remark: another data set of the same source

Variant	effect of a mutation on the interaction
S1613A	increasing interaction

Variants of: B1
Settings: with dab2_human DAB2, P98082
Remark: another data set of the same source

Variant	effect of a mutation on the interaction
S1607A	decreasing interaction

Variants of: B1
Settings: with dab2_human DAB2, P98082
Remark: another data set of the same source

Variant	effect of a mutation on the interaction
T1572A	decreasing interaction

Variants of: B1
Settings: with dab2_human DAB2, P98082
Remark: another data set of the same source

Variant	effect of a mutation on the interaction
S1598A	increasing interaction

Variants of: B1
Settings: with dab2_human DAB2, P98082
Remark: another data set of the same source

Variant	effect of a mutation on the interaction
S1596A	decreasing interaction

Variants of: B1
Settings: with dab2_human DAB2, P98082
Remark: another data set of the same source

Variant	effect of a mutation on the interaction
S1590A	decreasing interaction

Variants of: B1
Settings: with dab2_human DAB2, P98082
Remark: another data set of the same source

Variant	effect of a mutation on the interaction
S1586A	decreasing interaction

Variants of: B1
Settings: with dab2_human DAB2, P98082
Remark: another data set of the same source

Variant	effect of a mutation on the interaction
T1610A	decreasing interaction

Variants of: B1
Settings: with dab2_human DAB2, P98082
Remark: another data set of the same source

Variant	effect of a mutation on the interaction
S1579A	disrupting interaction
